Data published in patent publication US20150139990A1 (DAINIPPON SUMITOMO PHARMA, published 2015).

What was measured:
[1] = target: T1, human CD81 on CD81-expressing cells (Jurkat E6.1, human PBMC, Ramos) (human, UniProt P60033 1-236); test: cell-based or functional assay
T1 sequence: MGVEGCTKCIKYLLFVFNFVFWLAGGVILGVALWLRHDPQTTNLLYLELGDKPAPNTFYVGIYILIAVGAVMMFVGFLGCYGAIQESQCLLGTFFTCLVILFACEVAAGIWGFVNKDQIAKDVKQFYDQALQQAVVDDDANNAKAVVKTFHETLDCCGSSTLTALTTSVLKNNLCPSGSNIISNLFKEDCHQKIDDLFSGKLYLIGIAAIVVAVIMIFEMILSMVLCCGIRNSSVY

[2] = target: T2, human CD81 mutant V169L (human, UniProt P60033 1-236, limits assumed); test: ELISA
T2 construct: as m30; not shown: C-terminal V5 and 6xHis tags
T2 sequence: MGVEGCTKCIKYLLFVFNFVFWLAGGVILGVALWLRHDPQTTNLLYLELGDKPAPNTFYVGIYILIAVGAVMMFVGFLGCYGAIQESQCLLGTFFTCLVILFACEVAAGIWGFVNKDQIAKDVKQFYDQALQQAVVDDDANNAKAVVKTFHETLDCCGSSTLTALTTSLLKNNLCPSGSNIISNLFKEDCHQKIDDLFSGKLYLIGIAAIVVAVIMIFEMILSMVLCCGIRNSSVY

[3] = target: T3, human CD81 mutant S168T (human, UniProt P60033 1-236, limits assumed); test: ELISA
T3 construct: as m30; not shown: C-terminal V5 and 6xHis tags
T3 sequence: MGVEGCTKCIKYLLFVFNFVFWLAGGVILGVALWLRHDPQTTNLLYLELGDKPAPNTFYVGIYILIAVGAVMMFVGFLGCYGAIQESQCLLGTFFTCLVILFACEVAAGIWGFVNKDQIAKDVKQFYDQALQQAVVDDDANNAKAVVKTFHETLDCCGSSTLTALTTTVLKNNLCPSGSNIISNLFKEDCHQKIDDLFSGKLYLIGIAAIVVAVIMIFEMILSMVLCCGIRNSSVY

[4] = target: T4, human CD81 mutant A164V (human, UniProt P60033 1-236, limits assumed); test: ELISA
T4 construct: as m30; not shown: C-terminal V5 and 6xHis tags
T4 sequence: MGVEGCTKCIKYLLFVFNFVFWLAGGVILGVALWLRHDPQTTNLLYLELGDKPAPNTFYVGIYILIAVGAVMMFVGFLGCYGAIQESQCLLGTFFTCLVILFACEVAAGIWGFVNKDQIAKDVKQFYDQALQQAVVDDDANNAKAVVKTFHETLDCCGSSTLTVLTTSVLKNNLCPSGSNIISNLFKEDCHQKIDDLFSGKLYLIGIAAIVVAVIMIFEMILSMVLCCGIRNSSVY

[5] = target: T5, human CD81 mutant V135A (human, UniProt P60033 1-236, limits assumed); test: ELISA
T5 construct: as m30; not shown: C-terminal V5 and 6xHis tags
T5 sequence: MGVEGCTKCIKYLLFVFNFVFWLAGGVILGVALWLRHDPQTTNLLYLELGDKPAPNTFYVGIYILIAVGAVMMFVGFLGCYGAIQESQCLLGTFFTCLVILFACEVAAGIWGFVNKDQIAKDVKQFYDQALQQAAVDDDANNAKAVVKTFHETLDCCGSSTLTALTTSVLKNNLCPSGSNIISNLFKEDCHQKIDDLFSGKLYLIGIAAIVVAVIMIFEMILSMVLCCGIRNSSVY

[6] = target: T6, human CD81 mutant I194A (human, UniProt P60033 1-236, limits assumed); test: ELISA
T6 construct: as m30; not shown: C-terminal V5 and 6xHis tags
T6 sequence: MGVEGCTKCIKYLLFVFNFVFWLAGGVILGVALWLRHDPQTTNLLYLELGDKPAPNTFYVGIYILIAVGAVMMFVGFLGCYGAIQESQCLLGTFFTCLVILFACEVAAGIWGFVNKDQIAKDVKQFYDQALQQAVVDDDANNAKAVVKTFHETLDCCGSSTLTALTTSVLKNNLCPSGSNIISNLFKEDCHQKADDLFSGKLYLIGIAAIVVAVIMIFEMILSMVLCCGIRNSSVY

[7] = target: T7, human CD81 mutant V169A (human, UniProt P60033 1-236, limits assumed); test: ELISA
T7 construct: as m30; not shown: C-terminal V5 and 6xHis tags
T7 sequence: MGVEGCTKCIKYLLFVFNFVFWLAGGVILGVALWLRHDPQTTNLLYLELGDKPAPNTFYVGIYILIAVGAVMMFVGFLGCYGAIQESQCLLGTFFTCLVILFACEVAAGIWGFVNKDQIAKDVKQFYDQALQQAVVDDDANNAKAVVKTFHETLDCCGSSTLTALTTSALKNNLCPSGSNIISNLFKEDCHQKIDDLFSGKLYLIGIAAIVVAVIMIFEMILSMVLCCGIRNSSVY

[8] = target: T8, human CD81 mutant S168A (human, UniProt P60033 1-236, limits assumed); test: ELISA
T8 construct: as m30; not shown: C-terminal V5 and 6xHis tags
T8 sequence: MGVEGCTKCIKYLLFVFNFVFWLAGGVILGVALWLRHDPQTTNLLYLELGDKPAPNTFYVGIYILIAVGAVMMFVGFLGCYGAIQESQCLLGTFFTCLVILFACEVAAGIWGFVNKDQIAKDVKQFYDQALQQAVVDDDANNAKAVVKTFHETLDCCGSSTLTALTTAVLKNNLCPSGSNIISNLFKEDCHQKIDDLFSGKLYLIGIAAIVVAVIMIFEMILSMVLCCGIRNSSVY

[9] = target: T9, human CD81 mutant A164T (human, UniProt P60033 1-236, limits assumed); test: ELISA
T9 construct: as m30; not shown: C-terminal V5 and 6xHis tags
T9 sequence: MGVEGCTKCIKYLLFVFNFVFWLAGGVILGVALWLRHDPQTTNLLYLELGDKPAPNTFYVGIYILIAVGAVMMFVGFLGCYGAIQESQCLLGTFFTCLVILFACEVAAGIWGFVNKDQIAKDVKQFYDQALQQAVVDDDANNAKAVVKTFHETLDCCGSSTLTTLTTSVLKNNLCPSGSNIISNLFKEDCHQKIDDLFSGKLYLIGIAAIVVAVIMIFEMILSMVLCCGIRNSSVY

[10] = target: T10, human CD81 mutant L165A (human, UniProt P60033 1-236, limits assumed); test: ELISA
T10 construct: as m30; not shown: C-terminal V5 and 6xHis tags
T10 sequence: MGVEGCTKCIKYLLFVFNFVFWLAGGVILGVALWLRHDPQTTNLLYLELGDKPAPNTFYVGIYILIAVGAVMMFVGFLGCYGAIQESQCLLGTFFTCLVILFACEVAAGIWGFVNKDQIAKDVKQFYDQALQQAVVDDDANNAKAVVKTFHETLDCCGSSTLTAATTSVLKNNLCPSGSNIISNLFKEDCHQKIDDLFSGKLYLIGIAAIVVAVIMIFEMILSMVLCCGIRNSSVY

- Jurkat chemotaxis (% of control IgG4) at 0.001 µg/mL [1]: 102%
- Jurkat chemotaxis (% of control IgG4) at 0.01 µg/mL [1]: 79%
- Jurkat chemotaxis (% of control IgG4) at 0.1 µg/mL [1]: 27%
- Jurkat chemotaxis (% of control IgG4) at 1 µg/mL [1]: 5%
- Jurkat chemotaxis (% of control IgG4) at 10 µg/mL [1]: 7%
- relative binding affinity [2]: < 20%
- relative binding affinity [3]: < 20%
- relative binding affinity [4]: < 20%
- relative binding affinity [5]: < 20%
- relative binding affinity [6]: < 20%
- relative binding affinity [7]: < 20%
- relative binding affinity [8]: < 20%
- relative binding affinity [9]: < 20%
- relative binding affinity [10]: < 20%
B1: 002-F05 (antibody, human IgG4 S228P, lambda, V domains shown)
VH: EVQLLESGGGLVQPGGSLRLSCAASGFTFSSNYMSWVRQAPGKGLEWVSYISSSSTYTDYADSVKGRFTISRDNSKNTLYLQMNSLRAEDTAVYYCARYSYGRDDFDYWGQGTLVTVSS
VL: QSVLTQPASASGTPGQRVTISCTGSTSNIGAGYDTHWYQQLPGTAPKLLIYGNSNRPSGVPDRFSGSKSGTSASLAISGLRSEDEADYYCQSYDTNLNVWVFGGGTKLTVLG
notes: IgG4 S228P
